In this assay the target is human CLEC14A (endogenous, in HUVECs) (human) (UniProt Q86T13). The experiment in a line: cell-based or functional assay.
Chain of UniProt Q86T13 (Q86T13 22-490): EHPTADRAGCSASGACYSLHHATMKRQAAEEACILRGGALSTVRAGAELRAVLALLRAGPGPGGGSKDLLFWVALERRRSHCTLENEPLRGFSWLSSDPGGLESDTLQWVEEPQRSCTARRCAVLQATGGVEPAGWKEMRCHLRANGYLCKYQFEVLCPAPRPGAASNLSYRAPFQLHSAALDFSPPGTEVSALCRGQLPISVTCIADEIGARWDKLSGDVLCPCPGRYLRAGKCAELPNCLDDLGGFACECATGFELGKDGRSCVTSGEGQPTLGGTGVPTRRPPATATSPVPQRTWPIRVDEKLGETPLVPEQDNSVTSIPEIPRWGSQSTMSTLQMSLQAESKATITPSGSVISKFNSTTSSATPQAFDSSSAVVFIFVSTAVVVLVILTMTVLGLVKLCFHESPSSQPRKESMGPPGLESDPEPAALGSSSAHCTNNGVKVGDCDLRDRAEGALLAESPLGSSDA

B1: anti-CLEC14A monoclonal antibody CRT-3 (antibody, from another filing, IgG1, V domains shown)
VH: EVQLQQSGTVLARPGASVKMSCKASGYTFTSYWMHWVKQRPGQGLEWIGAIYPGNSDTSYNQKFKGKAKLTAVTSTSTAYMELSSLTNEDSAVFYCTHYYGSDYAMDYWGQGTSVTV
VL: QIVLTQSPAIMSASLGERVTMTCTASSSVSSSYLHWYQQKPGSSPKLWIYSTSNLASGVPARFSGSGSGTSYSLTISSMEAEDAATYYCHQYHRSPRTFGGGTKLEIKR
Consider B1, for which the wound area remaining open at 12 h, HUVEC scratch wound healing assay, 10 µg/ml antibody was found to be 25%.
